Data as given in the supplement of paper PMC9732359.
± gives the uncertainty stated by the source.

Experiment: protein stability index of a GFP-peptide fusion (yeast GPS) (PSI 1-4); higher = more stable; sorted into four equal gates, so the index is relative within each strain
In short: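 Plasmids in a pooled yeast library fused tiled 17-residue yeast protein peptides downstream of GFP and also expressed Cherry. Mid-log cultures grown without leucine were sorted into four equal gates by GFP/Cherry fluorescence ratio. Each gate's plasmids were PCR-amplified and Illumina-sequenced, and reads were matched to strains by barcodes. The protein stability index is derived by multiplying each gate's read frequency by its gate number and summing the results.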

Row | Sequence | protein stability index (pdr5∆) | protein stability index (san1∆) | protein stability index (ubr1∆) | protein stability index (doa10∆)
1 | ALTRGEALLVVLVSSVT [RPS12] | 3.63 ± 0.26 | 3.52 ± 0.24 | 3.29 ± 0.26 | 
2 | YPSKTLKTDGVRAVSIT [FAS2] | 2.3 ± 0.087 | 2 ± 0.091 | 2.23 ± 0.061 | 2.12 ± 0.078
3 | DQKPIEHIKEGSEIAIS [SWI3] | 3.21 ± 0.069 | 2.87 ± 0.064 | 2.92 ± 0.04 | 2.93 ± 0.058
4 | DFSLRYISNLLYGVTIC [REC8] | 1.71 ± 0.041 | 1.83 ± 0.074 | 1.5 ± 0.027 | 2.13 ± 0.039
5 | SNDSQSHFDYNTLEFII [YCG1] | 2.78 ± 0.19 |  | 2.89 ± 0.14 | 2.52 ± 0.2
6 | RIFAIAFTRKQANQVKR [RPS1A] | 1.66 ± 0.019 | 1.99 ± 0.031 | 1.98 ± 0.02 | 1.59 ± 0.018
7 | GEFSGKNFSPTKRVEKP [RRP6] | 2.47 ± 0.094 | 2.54 ± 0.078 | 3.22 ± 0.059 | 2.37 ± 0.089
8 | FLSSFDDVLQTIITDCA [YJL039C/NUP192] | 2.07 ± 0.049 | 2.03 ± 0.062 | 2.38 ± 0.034 | 2.43 ± 0.045
9 | GLCGAGTNNARLAQLLR [RPN1] | 1.79 ± 0.047 | 1.4 ± 0.13 | 1.16 ± 0.042 | 2.44 ± 0.068
10 | SKEQIHGSIIILGMLSL [YCS4] | 2.32 ± 0.05 | 2.72 ± 0.049 | 2.82 ± 0.045 | 2.45 ± 0.053
11 | KMSDGFNGADIRNCATE [RPT4] | 3.47 ± 0.059 | 3.35 ± 0.041 | 3.3 ± 0.043 | 3.43 ± 0.074
12 | VTDSSLLKLLTRLVQLR [GRR1] | 1.7 ± 0.056 | 2.41 ± 0.074 | 1.84 ± 0.045 | 2.4 ± 0.054
13 | FIANEGVHTGQFIYAGK [RPL2A] | 2.44 ± 0.17 | 2.04 ± 0.27 |  | 2.98 ± 0.22
14 | SMRVKPSASLKLHHDLK [YMR129W/POM152] | 2.98 ± 0.064 | 2.95 ± 0.062 | 3.1 ± 0.048 | 3.14 ± 0.079
15 | YITLKATFLKDDLPYYV [QCR2] | 2.17 ± 0.049 | 2.51 ± 0.054 | 2.44 ± 0.039 | 2.42 ± 0.047
16 | EPVKEYTFKTSMRVKPS [YMR129W/POM152] | 3.08 ± 0.13 | 3.04 ± 0.13 | 3.48 ± 0.16 | 3.31 ± 0.15
17 | IRNIVEAAAVRDLSEAS [RPS26A] | 2.39 ± 0.082 | 2.39 ± 0.079 | 2.49 ± 0.077 | 2.07 ± 0.066
18 | LEDQQRQQKLLLETKLR [SWI1] | 2.65 ± 0.14 | 3.12 ± 0.083 | 2.31 ± 0.17 | 2.81 ± 0.12
19 | TIHRSFTICLNDRNPRL [CSN12] | 2.76 ± 0.063 | 2.72 ± 0.069 | 2.65 ± 0.043 | 2.82 ± 0.065
20 | LFVFTEGWPKFQDTLYK [QCR10] | 2.91 ± 0.22 | 3.08 ± 0.12 |  | 3.21 ± 0.19
21 | LIEPLPTESYLQYIIHD [BRR2] | 2.96 ± 0.065 | 2.58 ± 0.096 | 2.49 ± 0.049 | 2.42 ± 0.083
22 | PLVYRHELITNIGETAG [RPB9] | 2.88 ± 0.035 | 3.04 ± 0.042 | 3.02 ± 0.036 | 2.78 ± 0.046
23 | LIALSLIMALLQFRPAP [SMC2] | 1.3 ± 0.026 | 1.36 ± 0.048 | 1.3 ± 0.025 | 1.62 ± 0.029
24 | KNAVVRSKFGGDFLDFQ [ARP7] | 2.57 ± 0.12 | 3.31 ± 0.094 | 3.21 ± 0.083 | 3 ± 0.13
25 | AQGLLHLGKGTMTMDVF [RPN1] | 2.61 ± 0.066 | 2.15 ± 0.081 | 1.89 ± 0.058 | 2.47 ± 0.065

Row | Sequence | protein stability index (pdr5∆) | protein stability index (san1∆) | protein stability index (ubr1∆) | protein stability index (doa10∆)
26 | YQWRDLIARRDDESPRF [RRP6] | 3.42 ± 0.067 | 3.24 ± 0.057 | 3.26 ± 0.068 | 3.23 ± 0.077
27 | GIKLQMQNSKVESVCQK [SMC4] | 2.45 ± 0.077 | 2.59 ± 0.08 | 2.5 ± 0.084 | 2.55 ± 0.074
28 | RQREMAEEQTKLQSQSL [YLR018C/POM34] | 3.28 ± 0.046 | 3.11 ± 0.05 | 3.1 ± 0.036 | 3.18 ± 0.045
29 | KIAKRRQVYKPVLDNPF [POP3] | 2.33 ± 0.082 | 1.99 ± 0.11 | 2.08 ± 0.066 | 1.92 ± 0.077
30 | LEVGRRFSPDEDFEHNN [MCD1] | 3.45 ± 0.18 | 3.22 ± 0.16 | 3.45 ± 0.18 | 3.26 ± 0.15
31 | VNEIMYKCTAAMEKYLL [MTW1] | 2.44 ± 0.06 | 2.4 ± 0.07 | 2.29 ± 0.056 | 2.19 ± 0.046
32 | IHSMNENPTPEKGNAKM [SIR3] | 2.67 ± 0.069 | 3.03 ± 0.059 | 2.87 ± 0.048 | 2.94 ± 0.087
33 | PNERKAKQAKIRAGEFD [SNF2] | 3.66 ± 0.18 | 2.99 ± 0.17 | 3.5 ± 0.14 | 3.62 ± 0.12
34 | LTSVTRHGFNRSNTGAL [RPO21] | 2.39 ± 0.063 | 2.75 ± 0.093 | 2.51 ± 0.058 | 2.48 ± 0.067
35 | KENFILDSLMKTTRLLL [YJL039C/NUP192] | 1.64 ± 0.05 | 1.42 ± 0.095 | 1.61 ± 0.05 | 1.96 ± 0.057
36 | ERTKNAQFIVISLRNNM [SMC4] | 1.3 ± 0.063 | 1.33 ± 0.093 | 1.73 ± 0.08 | 2.72 ± 0.13
37 | DSYLILDTLPSEFDSRV [RPT5] | 3.48 ± 0.12 | 3.23 ± 0.062 | 3.1 ± 0.036 | 2.83 ± 0.09
38 | NSISSQPASYHSVQETN [SSN2] | 2.54 ± 0.058 | 2.88 ± 0.068 | 2.69 ± 0.052 | 2.22 ± 0.049
39 | EITDASLNLQYVNYEIS [YML103C/NUP188] | 2.96 ± 0.067 | 2.31 ± 0.072 | 2.79 ± 0.049 | 2.62 ± 0.05
40 | KKSKKKWSKKSMKDRAQ [RPS25A] | 3.37 ± 0.1 | 3.36 ± 0.087 | 3.6 ± 0.051 | 3.46 ± 0.069
41 | NGKIWVKCEELSNTLAC [RRP40] | 3.24 ± 0.13 | 3.26 ± 0.067 | 3.6 ± 0.16 | 3.29 ± 0.12
42 | LRSTIANLLQINVDNDP [YML103C/NUP188] | 1.4 ± 0.13 |  | 1.15 ± 0.15 | 2.21 ± 0.1
43 | LSFINPKTGKVERSEAI [SEC65] | 3.47 ± 0.081 | 3.33 ± 0.14 | 3.22 ± 0.073 | 3.6 ± 0.17
44 | TKRSIAIVFEEIKNWIS [YMR129W/POM152] | 1.82 ± 0.045 | 1.44 ± 0.076 | 1.91 ± 0.052 | 1.41 ± 0.043
45 | RGREEAASFKKLYKTPI [PRE10] | 3.06 ± 0.27 | 1.45 ± 0.2 | 2.97 ± 0.13 | 2.6 ± 0.17
46 | HQSELIIKQTVHPIPDV [YMR129W/POM152] | 2.86 ± 0.055 | 2.55 ± 0.071 | 2.27 ± 0.061 | 2.74 ± 0.066
47 | ETHSKKRKKEANEEPNT [ITC1] | 2.6 ± 0.072 | 3.13 ± 0.058 | 2.17 ± 0.058 | 2.69 ± 0.096
48 | HIGHSALKGPVRDKLDE [DPB4] | 3.18 ± 0.068 | 3.11 ± 0.084 | 3.2 ± 0.083 | 3.29 ± 0.085
49 | ENGQRDLDRIAAQTLEE [RPS19A] | 3.16 ± 0.086 | 3.28 ± 0.097 | 3.19 ± 0.093 | 3.2 ± 0.084
